Reference: patent US20120100142A1 (VANDERBILT UNIVERSITY, published 2012)

What was measured:
[1] = target: Recombinant A/South Carolina/1/1918 virus HA (influenza A/South Carolina/1/1918 …, UniProt Q9WFX3 18-520)
[2] = target: T1, 1918 HA displayed on 1918 virus-like particles, reconstituted 1918 virus or transfected cells (influenza A/South Carolina/1/1918 …, UniProt Q9WFX3 18-566); assay: cell-based or functional assay
[3] = target: T1, 1918 HA displayed on 1918 virus-like …; assay: cell-based or functional assay; remark: listed apart in the source
[4] = target: T1, 1918 HA displayed on 1918 virus-like …

T1 sequence (Q9WFX3 18-566): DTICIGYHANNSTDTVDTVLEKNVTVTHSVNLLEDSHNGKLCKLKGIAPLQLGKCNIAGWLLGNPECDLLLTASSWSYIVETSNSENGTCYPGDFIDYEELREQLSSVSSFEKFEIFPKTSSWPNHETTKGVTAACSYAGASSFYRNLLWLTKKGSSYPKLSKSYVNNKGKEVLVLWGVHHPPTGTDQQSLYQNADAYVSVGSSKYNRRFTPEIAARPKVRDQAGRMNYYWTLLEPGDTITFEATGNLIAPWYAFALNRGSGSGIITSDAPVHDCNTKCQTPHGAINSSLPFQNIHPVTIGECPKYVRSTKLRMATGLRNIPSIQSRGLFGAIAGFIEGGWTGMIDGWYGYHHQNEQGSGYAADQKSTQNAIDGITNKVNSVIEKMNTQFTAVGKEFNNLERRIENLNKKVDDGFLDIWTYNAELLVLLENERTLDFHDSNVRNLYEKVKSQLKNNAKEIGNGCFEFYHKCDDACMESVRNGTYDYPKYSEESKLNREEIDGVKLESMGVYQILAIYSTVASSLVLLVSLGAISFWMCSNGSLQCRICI
Chain of Recombinant A/South Carolina/1/1918 virus HA (Q9WFX3 18-520 limits assumed): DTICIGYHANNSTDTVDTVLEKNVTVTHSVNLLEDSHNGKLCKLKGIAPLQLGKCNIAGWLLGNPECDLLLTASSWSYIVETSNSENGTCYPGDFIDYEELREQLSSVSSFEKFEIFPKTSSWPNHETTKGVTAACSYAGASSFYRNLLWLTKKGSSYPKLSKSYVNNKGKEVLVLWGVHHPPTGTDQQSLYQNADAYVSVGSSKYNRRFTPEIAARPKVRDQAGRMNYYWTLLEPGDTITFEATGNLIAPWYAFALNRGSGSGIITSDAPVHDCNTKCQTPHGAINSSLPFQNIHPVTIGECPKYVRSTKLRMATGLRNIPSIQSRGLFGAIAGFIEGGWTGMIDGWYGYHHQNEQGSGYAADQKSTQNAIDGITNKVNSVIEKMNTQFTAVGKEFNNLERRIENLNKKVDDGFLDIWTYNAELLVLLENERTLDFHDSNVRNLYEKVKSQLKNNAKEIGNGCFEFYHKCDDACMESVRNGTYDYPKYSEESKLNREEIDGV

Binder	Kd [1]	koff [1]	kon [1]	Specific HAI activity [2]	HAI, specific activity of indicated mAb [3]	EC50 (read off the curve) [4]
mAb 2D1 (antibody, V domains shown) VH: EVQLVESGPALVKPTQTLTLTCSFSGFSLSTSGMSVSWIRQPPGKALEWLALIDWDDDTYYITYSSSLKTRLTISKDTSKSQVVLTMTNMDPVDTATYYCARTLRVSGDYVRDFDLWGRGTLVTVS VL: not shown	0.25 nM	1e-05 s⁻¹	39000 M⁻¹ s⁻¹	0.01 µg/mL	0.025 µg/mL	–
mAb 4D20 (antibody, V domains shown) VH: EVQLVESGPVLVKPTETLTVTCTVSGFSVDNDRMGVSWIRQPPGKALEWLAHIFSNDEKSYSTSLRSRLTISKDTSKRQVVLSMTDMDPVDTATYYCARAPSEYAAMDVWGQGTMVTVS VL: SYVLTQPPSVSVAPGETATVTCGGNNIGSKSVHWYQQKPGQAPVVVIYYDGDRPSGIPERFSGSNSGDTATLTISRVEAGDEADYYCLVWDYTSVHYVFGTGTKVTVLG	0.14 nM	1e-05 s⁻¹	170000 M⁻¹ s⁻¹	0.04 µg/mL	0.04 µg/mL	–
mAb 1F1 (antibody, V domains shown) VH: EVQLVQSGGGVVQPRRSLRLSCAASGFTFSSYAMHWVRQAPGKGLEWVAVISYDGRNKYYADSVKGRFTVSRDNSKNTLYLQMNSLRAEDTSVYYCARELLMDYYDHIGYSPGPTWGQGTLVTVSS VL: QPVLTQPPSASGSPGQRVTISCSGSSSNIGSYTVNWYQQLPGTAPKLLIYSLNQRPSGVPDRFSGSKSGTSASLAISGLQSEDEAVYYCAAWDDSLSAHVVFGGGTKLTVLG	5.4 nM	0.00017 s⁻¹	31000 M⁻¹ s⁻¹	0.08 µg/mL	0.04 µg/mL	–
mAb 2B12 (antibody, V domains shown) VH: EVQLQESGPGLVKPSQTLSLTCNVSGGSITGDYKWSWIRQPPGKGLEWIGHIHSTGTTYYNPSLRSRITISMDTSKNNLSLRLTSVTAADTAVYYCASHTLTSGHYPRDFDFWGQGTLVTVSS VL: SYVLTQPPSVSGTPGQRVIISCSGYSSNIGSNTVNWYQQFPGTAPRLLIYANNQRPPGVPDRFSGSKSGTSASLAISGLQSDDESDYYCAAWDDSLNGHWVFGGGTKLTVLG	6.2 nM	0.00012 s⁻¹	18000 M⁻¹ s⁻¹	0.31 µg/mL	0.32 µg/mL	~0.02 µg/mL
mAb 1I20 (antibody, V domains shown) VH: EVQLVESGGGVVQPGGSLRLSCIASAFNLGIFGMHWVRQAPGKGLEWVAFIRYDGGKTFYADSVKGRFTISRDNSKNTLYLQMNSLRTEDTALYYCARDATADYYGPGSYPNWLDPWGQGTLVTVS VL: DIRLTQSPATLSVSPGERATLSCRASHSVSRNLAWYQQKPGRAPRLLVYDTSSRATGIPARFSGSGSGTEFTLTISSLQSEDFAVYYCQQYNNWPRTFGQGTKVDIK	0.048 nM	1.4e-05 s⁻¹	290000 M⁻¹ s⁻¹	0.16 µg/mL	0.28 µg/mL	–
